Experimental data taken from the DeepSol protein solubility set.

Assay: soluble on expression in E. coli; label from the status in PepcDB or PDB records

Row | Sequence | soluble on expression in E. coli
1 | MEYQLREIDESEKEITQQRKKNSVTTKNFDNLSNSNSQITEMTNEQGVIPLREKDLTINVGDNRNLKVEEFMTNFISNVFENKNALFLYCKYVLLFYGKELLNENNVESLNFEIIKGGITNILVKVEDNIHQNKYLIRLYGPKTSEIINREREKLISNILCDKNISKKIYVFFPNGRIEEFKDGYALSREDIKNKDFQKEIAENLRILHDIQLDDTIYKKLQALQNIQGNRSSFLWSTLWKYFNTLKEERQKKYSFNPKAYILKLIDFDMLESIITEIQELCCKKNSPVVLCHCDLLSSNIIKTEGSSISFIDFEYSCPMERAYDIANHFNEYAGFNCEWDLTPNRSEEYHFIKHYLKTDDEQLINQLIDEIQPFYVCSHIVWGLWALLQGLHSVIDFDFINYGMTRLTAAFSVKFRSKLEKN | not soluble
2 | MFASKDINDLIAIVAGLRNRESGCIWNIKQTFESLIPYMLEEVYEVIDAIERKNRTDLCDELGDLLLQVVYHATIAQEEGSFTFEDVVYAITSKMIRRHPHVFGNAEQKKRGFIEDEWERIKKTERAEQNKCYEAVNLPTNSTTSILEKIKKLQPAHQEALALQKAAATVGFNWHESHKFFAKIEEEINELKDAIKNDKTSDIEAEFGDLYFSLLNLALHLNIDSQKALKKTNTKFRNRFTYIEESLYTQSKTLANTSLKEMESLWNKAKNKK | not soluble
3 | MFDDLHEYLDFLARKNDLITVNDQVDPDLELTYILSEEERIGRGRTIQFNRVKGSEVPAVGNLFSTYEKMKTVLGDDPYQIGRRIVEIAQPPGDSESFIGKGIEMMRELGGLRPKIAGSLPSNYDELDRVDLFRYPICKTWPQDGGKFITLPLVITKDPETGTRNMGMYRMQVYDSETTGMHWHIHKGGSENFQKEAQKHEVMDVAVVIGSDPLTIFSAVAPLPNGIDEFMFRGLVSKKRFDLVKGKTVNLEYPRNFEIVLEGYIDPAETRIEGPFGDHTGYYSLEEQFPVFHIKKIIERRDRIYPTTIVGKLWHEDVIMGKTIERMFLPLIQMVMPEVVDINTMEEAVFHNMVIVSIKKRYPGHAKKVMFGLWGMGQMMFSKIIVVVDDDINVHNRKEVIWAMTTRIDPDRDVIIIPGTVTDSLDHASPIFNYGSKMGIDATKKRPDEGYQRRWPDVLEMPEDVTNRVRDLMKKNGMTQLEHHHHHH | not soluble
4 | MFDGEDLKKIFAMDGFLRNIEFEVSYISEGSIEIKVPLKENLMRVGDIMNGGAIMAISDAIGGLTVMTYGSVINQVTVNFNTEFIRPIGTGPVIFRSSMVRIGKNIAYVDVAAIDGNGQLCSKSMGTYYIYR | soluble
5 | MFDIPGLSTGDFHGFPSLLIQTPFSHAAISLFGGQLLSFVPSGGEEVIWLSPLVQPPPTAIRGGIPICWPYFGRQGQRDTMPAHGFVRTVPWQQVESCQENDGSLFLVLAPPPLKHLGLHLRMTLRIGRTLEQELATENISHAPISFTQALHNYFRVSNALQVTVQGLDGVEYLDKFEGYTQRHRQQGHWTLQDPRDPGRADRIYVDTSGHYVLVDPLFSRRIVLTTEGSHSLVVWNPGHAGASNMIDVADGWRDYLCLEPANAGPDEIELLPGARHVLRQSIAIAPL | soluble
6 | MFEIATAKVDNMRVSIVGGGFAGLAAAQLAEEVTSDVHLYDKGTYSGDRRGAWGEMVWDYSQLPLDRHVPGYVREATTGIFIGSDGKTAINVPDGVILNRGELEKHWASTLEETEIIADAEVDEAEFRKLSAESDLLIDATGQFPISRRFTSLSYDVACPTLSGRIEADFSHLYPEPRALAYENYFLWIVPQSPDEATIGLGCQEDKSPAELYEDMRQLLAEVDIEPPERETLYSGTDVSNGLRSLSDCSYELNDCTVHIAGDAIGLANRLTGFGMVHAAQSGQAAVRSFVQGESYTRRLLCQNFWTKAVTGVVSPVHHTIGLDGIARLAKSDIEYQESFEPQQPTDILSAVRIFILEHHHHHH | not soluble
7 | MFERNREATMIFNIQRYSTHDGPGIRTVVFLKGCSLGCRWCQNPESRARTQDLLYDPRLCLEGCKLCAKTAPEVIERALNGLLIHREKLTPEHFTALTDCCPTQALTVCGEVKSVEEIMATVLRDKPFYDRSGGGLTLSGGEPFMQPEMATALLQASHEAGIHTAVETCLHVPWKYIAPSLPYIDLFLADLKHVADAPFKQWTDGNAARVLDNLKKLAAAGKKIIIRVPLIQGFNADETSVKAITDFAADELHVSEIHFLPYHTLGINKYHLLNLPYDAPEKPLDAPELLDFAQQYACQKGLTATLRG | not soluble
8 | MFFRVKTTPTKAKPYVKPQNANNLQNNFNPRKIFTEYISKEETDAGIEDGSMFKGVLRINPKNYQECFLDHPKGTNHPDVLVLGQDRNRAMQGDVVAVKIKPKEDWLVNYVEYVKWWAEHKKGDRNSGKTDNNSPNKTEKRCLRNEIQDNGVTSDEVPDSCLITIGAIVHILEKKHFRVAAGKLQLMPNSANPNVLFVATDSRVPRILIPKSDVDKEFFSRPKDFERFLYTAKITDWRAESVYADGRLVKLLGMSGEIDTETERIVYEHQIDHREFSDECLESLPITTAENWKVPDAEFEYRRDFRSDIVFTIDPKTARDLDDALHAKHIDDCDGKGTPGLEIGVHIADVTFFLKEGTELDKWASERGNSTYLSQTVIPMLPRILCEQLCSLNPGVDRLSFSTVFKMSYEAELYDVWFGRSVIRSRVKLAYEHAQDFIENPEKDFTCDELPDISDGNTPFEIKEKTLMLHRIAQVLRQKREDSGALRIELPRLKFALDEDKKPQGVSIYEIKDSNKLVEEFMLLANMEVAKKIAENFPEHALLRNHPPPKEKMIKDVAEQCARIGFPLDGRTSGLLSTSLRKYQGKSRLDMCIRQVISSLTIKPMQQAKYFCTFEMPLSFYHHFALNVDHYTHFTSPIRRYPDVIVHRQLAAALGYNERSERVPEEIQEICTRCNDTKLASKEASDESAMLYFGVFIHQTGPMKCQAVVLGVMDLSFDVLIVEYGVVKRVYVDKMKRDFNKSTEKLTIYWPADPNAESGNREEFSSSIQMCNVVYVILVPYKSIEVSATIVRPSLEQRNILKSTLKDMKETGSTILQ | not soluble
9 | MFFVSLLFEFFDSIFEIAVMLGFEMLCRMAADSSVLHCLVAAYMGLGKLPATTEKHTYAQQDKSQSDQQKRSQKNCSHLLLYLRNTKVRFSYPQRSTINNS | not soluble
10 | MFGFPTATLLDCHGRYAQNVAFFNVMTEAHHKYDHSEATGSSSWDIQNSFRREKLEQKSPDSKTLQEDSPGVRQRVYECQECGKSFRQKGSLTLHERIHTGQKPFECTHCGKSFRAKGNLVTHQRIHTGEKPYQCKECGKSFSQRGSLAVHERLHTGQKPYECAICQRSFRNQSNLAVHRRVHSGEKPYRCDQCGKAFSQKGSLIVHIRVHTGLKPYACTQCRKSFHTRGNCILHGKIHTGETPYLCGQCGKSFTQRGSLAVHQRSCSQRLTL | soluble
11 | MFGIDGLEFLVILLVLIVVVGPKDLPKMLKTMARAIAYVRSTANEFRHQFDDAIKQAELDDLQKTLSDMNDFNPDKKLTGILNPMQDIRGDILNNFDVNTTHHKLEKDQENFECNENKTNEDLDVPVDAHSSGSVFVTSKDKESAS | not soluble
12 | MFHLSSLICCGCKPNFLGFERHHPFYDNDKKRICSSECGHSLCKKCFETYKNCPICAKPLVRIDNFMAREIYAFLKKTPMIVFDMWWNRSQNPSSTGRCSTCHKYDRILRWCITCEKDLKNSEAEWRRPKIEPNTDLQKELIKVSKERFRFGILANRVICSDCFLEHHAGHRVIFLDEMISALTEYSISDSATHLVQRFLWREIEERRGKCLLRTMRMKRAFLKLFYLACDSDLTDDYNDLPKFFERLDDWKVPDGYMEKVRKNLEHQFASANVPWKDCECRYAMRIMNDMFSFKNQIEKLFVSIVNDLDLHEITECPFKNSQITDMLQKTKKMVDIQLYKLYTLFCWNNYKDGVFELFNNSNRLPTKCCLCKMSTCAECWDEEPHKCGICDDATTSSRTDPDIVVLELVKHYKENCISLLEAWWECDAAQLGFCLNCASYTEDLEICVYCELDVERSALKTEVETSAEFTKDMQLRFTYKGLSGFPMRWQCSDCTTRHRKPTADVWNKGCNHFRYRSMYASVSSECFAHNHKSPCLRLKEIKNYDLAMKAATFGLVFKIIKEGIKEHVGSEHARKEILET | not soluble
13 | MFKRVHLIVLDSVGIGEAPDAEKFGDVGSDTLGHIAKEAGLTIPHLEKLGLGTIAPLTGVKAVADHDGYATKLEEISVGKDTMTGHWEIMGLNIKKPFRVFPNGFPEELLKQIEDFSGRKVVCNKPYSGTAVIDDYGEHQMKTGDLIVYTSADPVLQIAAHEDIIPLEELYKICQYVRDITKDEPYMIGRIIARPYVGEPGNFTRTSNRHDYALDPFGHTVLDSLKENGNDVIAVGKINDIFNGQGITEAIRTKSNMDGVDQLLTVMNKEFTGLSFTNLVDFDALYGHRRDVKGYAKAIEDFDGRLPEIMAAMAEDDLLLITADHGNDPTFPGTDHTREYVPLLAYSKKMTKQGSLPQGFYSDISATIAENFEVPATENGQSFLNQLQ | not soluble
14 | MFLLQAPLQRRILEIGKKHGITELHPDVVSYVSHATQQRLQNLVEKISETAQQKNFSYKDDDRYEQASDVRAQLK | soluble
15 | MFMNKPFGSKRCEPFHESEHLCEAFAITEAILARYQRGKRSFTSSEKSGLAALIKRIPYDILVEVLDQSGFTPTSNATPPVDYLAMMEHTMTHGASITHALQYLNDLMTKCTGCPGIRTYYHNPNDDVLADPVHDTAALIDETTAVGKSVVTKQYLNIAGAHYIPLIHGDIVVGCVEVPRFSGNLEKLPSFPSLIRAVTCTAHKFIEEARINWNREKAEAMLQMATRLARDNLDETVLASSIMNTVKSLTESARCSLFLVKDDKLEAHFEDGNVVSIPKGTGIVGYVAQTGETVNIVDAYADDRFNREVDKATGYRTKTILCMPVMYEGTIVAVTQLINKLDLTTESGLRLPRVFGKRDEELFQTFSMFAGASLRNCRINDRLLKEKKKSDVILDVVTVLSNTDIRDVDGIVRHALHGAKKLLNADRSTLFLVDKERNELCSRMADSVAGKEIRFPCGQGIAGTVAASGVGENIQDAYQDPRFNREVDKQLGYRTQTILCEPIILNGEILAVVQLVNKLDTSGEVTVFTEDDRDTFRVFSLFAGISINNSHLLEFAVKAGREVMELNEHRATLFNKNVPSRAVKRVTAITKVEREAVLVCELPSFDVTDVEFDLFRARESTDKPLDVAAAIAYRLLLGSGLPQKFGCSDEVLLNFILQCRKKYRNVPYHNFYHVVDVCQTIHTFLYRGNVYEKLTELECFVLLITALVHDLDHMGLNNSFYLKTESPLGILSSASGNTSVLEVHHCNLAVEILSDPESDVFDGLEGAERTLAFRSMIDCVLATDMAKHGSALEAFLASAADQSSDEAAFHRMTMEIILKAGDISNVTKPFDISRQWAMAVTEEFYRQGDMEKERGVEVLPMFDRSKNMELAKGQIGFIDFVAAPFFQKIVDACLQGMQWTVDRIKSNRAQWERVLETRLSTSSGNNSSTR | not soluble
16 | MFPSPTPPLVSPTAVIEEENDDSVREFSRTLKSRLNCAMVKLSKEHEQVALIPPPPTEKIRKGSYSNKFAAKHRRCHSLDESKKFLSSLEDSSAHAAFLKAISSKHAKSNRVDNVNVSPLRWSSHRRTQSTQENSLQEVVAIDTLLKMSSSD | not soluble
17 | MFRPASIAVTAALCACALPALASETLNSRTDVLAALEAGYDVSVSTDLSRCTPEEGTPVSRTRGGRHIDAYRITEDGNVAFSGAHFTVANDGKPIQQFMRYQLRPDGSVRFTTYMYDLPGLQQRGPVLAYQCAFNEGARFHADLEHHHHHH | soluble
